Results published in patent publication US5217864, “Replication initiator protein complex and methods of use thereof” (The Rockefeller University).

Target: OTF1/NFIII (UniProt P14859 P14859:1-743)
Assay: EMSA; data not shown

Chain of OTF1/NFIII (P14859 whole entry, one chain of several): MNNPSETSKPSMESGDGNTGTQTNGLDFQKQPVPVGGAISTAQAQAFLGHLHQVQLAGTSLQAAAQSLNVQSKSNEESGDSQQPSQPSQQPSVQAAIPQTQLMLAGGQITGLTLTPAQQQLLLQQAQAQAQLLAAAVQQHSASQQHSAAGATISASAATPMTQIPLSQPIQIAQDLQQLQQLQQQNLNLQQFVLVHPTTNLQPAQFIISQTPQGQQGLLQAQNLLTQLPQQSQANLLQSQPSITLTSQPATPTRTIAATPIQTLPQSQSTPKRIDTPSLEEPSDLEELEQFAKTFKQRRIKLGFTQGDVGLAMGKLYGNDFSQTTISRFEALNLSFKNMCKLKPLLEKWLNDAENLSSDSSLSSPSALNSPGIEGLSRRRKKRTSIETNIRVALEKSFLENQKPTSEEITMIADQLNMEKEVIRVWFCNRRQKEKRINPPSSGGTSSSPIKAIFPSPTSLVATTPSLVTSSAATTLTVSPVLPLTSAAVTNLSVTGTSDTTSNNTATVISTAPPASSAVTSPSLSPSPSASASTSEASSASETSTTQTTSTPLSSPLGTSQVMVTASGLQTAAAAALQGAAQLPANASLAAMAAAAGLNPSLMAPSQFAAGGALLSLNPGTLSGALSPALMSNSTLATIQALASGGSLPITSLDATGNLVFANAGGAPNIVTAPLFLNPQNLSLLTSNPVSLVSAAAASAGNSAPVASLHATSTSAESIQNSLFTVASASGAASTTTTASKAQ

B1: OTF1 site at 5' end of 280 bp fragment (dsDNA)
DNA 1: ATTTTCAT
DNA 2: ATGAAAAT
Does B1 bind?
Result: binds
